Molecular target: biotinylated hIL-21 R (human, UniProt Q9HBE5, biotin (site not stated))
Assay: AlphaScreen or HTRF

Sequence of biotinylated hIL-21 R (Q9HBE5 20-232): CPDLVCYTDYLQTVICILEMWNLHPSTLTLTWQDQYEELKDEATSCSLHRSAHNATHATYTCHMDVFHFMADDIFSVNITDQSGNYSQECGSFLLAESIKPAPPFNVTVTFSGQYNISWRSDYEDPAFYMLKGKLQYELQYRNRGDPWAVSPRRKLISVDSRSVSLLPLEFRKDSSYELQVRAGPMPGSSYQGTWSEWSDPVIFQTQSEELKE

binding result: binds
B1: europium cryptate-labeled MJ4-2 (antibody, V domains shown)
VH: EVQLVESGGGLVQPGRSLRLSCAASGVTFSDYHMAWVRQAPKKGLEWVATIIYDAARTYYRDSVKGRFTISRDNAKNSLYLQMNSLRAEDTAVYYCATWQTTGTPGWFAYWGQGTLVTVSS
VL: DIQMTQSPSSLSASVGDRVTITCGASQSVSISRFNLMHWYQQKPGHQPKLLIYRASNLASGVPSRFSGSGSGTDFTLTINPLQAEDFATYYCQQSRESPPTFGGGTKVEIK
